Assay results reported in the supplement of paper PMC9170038.

Experiments:
MS2 coat protein [1] = experiment: apparent KD of MS2 coat protein, switch ON state; designed switch direction (-1 OFF switch, 1 ON switch): -1; higher = weaker reporter binding; conditions: FMN input: 0 or 200 uM; Eterna round: R93 (includes R88 designs)
Method in brief: (§1)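 Values are apparent KD, taken as the median for each design of fits to normalised binding curves from individual clusters. The designed RNA switches were transcribed on-chip from Illumina sequencing clusters and exposed to SNAP-549-labelled MS2 coat protein at twofold increasing amounts from 0.7 or 1.5 nM to 3 µM. Titration used 100 mM Tris-HCl pH 7.5, 80 mM KCl and 4 mM MgCl2, without or with constant ligand.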

MS2 coat protein [2] = experiment: apparent KD of MS2 coat protein, switch OFF state (with FMN for OFF switches, without FMN for ON switches); designed switch direction (-1 OFF switch, 1 ON switch): -1; higher = weaker reporter binding; conditions: FMN input: 0 or 200 uM; Eterna round: R93 (includes R88 designs)
Method in brief: as §1

Sequence	apparent KD of MS2 coat protein (MS2 coat protein [1]) [µM]	apparent KD of MS2 coat protein (MS2 coat protein [2]) [µM]
CACGUACAUGAGGAUCACCCAUGUUAGGAUAUGCCGGGUAAGAGAAAACUAAAAACCCGUAGAAGGGACGAAAC [Bilbo Confounded 13 - Jieux - Exclusion 1]	0.0233	0.0286
CAGUACUGAGGAUAUACAUGAGGAUCACCCAUGUGUAAAAGCUAGGAAACUAGCAAAUGUAGAAGGCAGUACUG [Ex3: 816]	0.0138	0.0365
CAGUACUGAGGAUAUACAUGAGGAUCACCCAUGUGUUCCAGCUAGGAAACUAGCAAAAGUAGAAGGCAGUACUG [Ex3: 828]	0.0246	0.343
CAGUACUGAGGAUAUACAUGAGGAUCACCCAUGUGUUCCAGCUAGGAAACUAGCACAUGUAGAAGGCAGUACUG [Ex3: 826]	0.187	0.0168
CCAGGACAUGAGGAUCACCCAUGUGAGGAUAUCUGUAUUCAAUCCUCGGAUUGAAUACAGAGAAGGCACAUGGA [Ex1: 659]	0.0386	0.0268
CCCAUGUCAGGAUAUCAGUAGUAAAAAAAAAAAAUUACUACUGAGAAGGGACAUGAGGAUCACCCAUGUCCAAA [EX4 316: Super Stable 16]	0.0617	0.0387
CCCAUGUCAGGAUAUCAGUAGUAAAAAAAAAAAAUUACUACUGAGAAGGGACAUGAGGAUCACCCAUGUUCAAA [EX4 317: Super Stable 17]	0.0334	0.0283
CCCUCACAUGAGGAUCACCCAUGUGAGGAUAUGCAUAAAAAAAAAAAAAAAAAAAAAUGCAGAAGGCACAUGAA [jn_irvington]	0.013	0.0111
CCCUCACAUGAGGAUCACCCAUGUUAGGAUAUCUACCAGGAGCCUAAAAUGGCCCAACGGAGAAGGAACGUGCA [Arbire]	0.0192	0.0169
CCUAUGUGAGGAUAUAGCCACAUUACGAAUAAGUAGUGUGGCUAGAAGGCACAUGAGGAUCACCCAUGUAUGGG [Exclusion 4.8 (GC closing FMN)]	0.0299	0.0156
CGAAUACAUGAGGAUCACCCAUGUUAGGAUAUGCGAAAACAAAACAAAACAAACAAAAGUAGAAGGAGCAACAA [EXC - 1]	0.0181	0.02
CGCAAGUCAGGAUAUUCGACAAGUAAAUCAGUAGAUCAAAAGAAGAAGGGACAUGAGGAUCACCCAUGUAAAUA [JR_Exc004_Sub403]	0.04	0.026
CGUUUGUUAGGAUAUAGCCACAUUACGAAUAAGUAGUGUGGCUAGAAGGAACAUGAGGAUCACCCAUGUAUGGG [Exclusion 4.3 (AU closing FMN)]	0.11	0.0785
CUCAAGUAAGGAUAUAGAAGAAAAGAAGAGAAAGAAAAGAACUAGAAGGUACAUGAGGAUCACCCAUGUAAGAA [EteRNA is fun!]	0.0416	0.0215
CUCAAGUAAGGAUAUUCAAGAAAAGAAGAGAAAGAAAAGAAGAAGAAGGUACAUGAGGAUCACCCAUGUAAGAA [EteRNA is fun!]	0.0446	0.0353
CUCAAGUAAGGAUAUUUAUGAAAUGAAGUGAAAGAAAAGAAAAAGAAGGUACAUGAGGAUCACCCAUGUUAGAA [EteRNA is fun!]	0.0328	0.0196

Sequence	apparent KD of MS2 coat protein (MS2 coat protein [1]) [µM]	apparent KD of MS2 coat protein (MS2 coat protein [2]) [µM]
CUCAAGUGAGGAUAUACAAAUAGUAAAUAAGUAUAACAAAAGUAGAAGGCACAUGAGGAUCACCCAUGUAAAUA [JR_Exc004_Sub302]	0.0294	0.0263
CUCAAGUUAGGAUAUCUAAGAAAAGAAGAGAAAGAAAAGAAAGAGAAGGAACAUGAGGAUCACCCAUGUAAGAA [EteRNA is fun!]	0.0184	0.0257
CUCAUGUCAGGAUAUCAGUAGUAAAAAAAUAAAAUUACUACUGAGAAGGGACAUGAGGAUCACCCAUGUCCAAA [EX4 367: Super Stable 67]	0.0931	0.0361
CUCAUGUCAGGAUAUGUAGCAUGAUACGAAAGUAUCAUGCUACAGAAGGGACAUGAGGAUCACCCAUGUGAUCA [Ex4: 941]	0.0317	0.0255
CUCUAGUUAGGAUAUGCAAGAAAAGAAAAGAAAGAAAAGAAGCAGAAGGAACAUGAGGAUCACCCAUGUAAGAA [EteRNA is fun!]	0.0494	0.0625
CUCUUGUAAGGAUAUCACCACACAAAAAAAAAAAAGUGUGGUGAGAAGGUACAUGAGGAUCACCCAUGUACUAA [Banishment 12 - Jieux - Exclusion 4]	0.0236	0.0252
CUCUUGUCAGGAUAUAGAAGAAAAGAAGAGAAAGAAAAGAACUAGAAGGGACAUGAGGAUCACCCAUGUAAGAA [EteRNA is fun!]	0.0487	0.0492
CUCUUGUCAGGAUAUCGAUGAAUAAUAAAACAGAGGAACAUUGAGAAGGGACAUGAGGAUCACCCAUGUAAAAC [May 83]	0.0731	0.0489
CUCUUGUCAGGAUAUGAAAGAAAAGAAAAGAAAGAAAAGAAUCAGAAGGGACAUGAGGAUCACCCAUGUAAGAA [EteRNA is fun!]	0.064	0.0769
CUCUUGUCAGGAUAUGCAAGAAAAGAAAAGAAAGAAAAGAAGCAGAAGGGACAUGAGGAUCACCCAUGUAAGAA [EteRNA is fun!]	0.0767	0.0777
CUCUUGUGAGGAUAUGUAAGAAAAGAAGAGAAAGAAAAGAAACAGAAGGCACAUGAGGAUCACCCAUGUAAGAA [EteRNA is fun!]	0.0528	0.146
CUUAAACAUGAGGAUCACCCAUGUGAGGAUAUGAUGCGAAUAAAGAAAGAAGAAAGCAUCAGAAGGCACAUAUG	0.0277	0.129
CUUAUGUGAGGAUAUGUACAGAAAAAAAAGGGUGUAACUGUACAGAAGGCACAUGAGGAUCACCCAUGUGAAUA [EX4 380: S S Pseudoknot 5]	0.0619	0.0251
CUUAUGUGAGGAUAUGUACAGAAAAAACUGGGUGUAACUGUACAGAAGGCACAUGAGGAUCACCCAUGUGCAAA [EX4 388: S S Pseudoknot 13]	0.0702	0.0568
GAAAACAGAGGAUAUACAAAAUUAUGACGAAAGUCAUAAAAACAUGAGGAUCACCCAUGUAGAAGGCUGAAGAA [Meechl MS2 Ex2]	0.0282	0.0216
